4 molecules from patent publication US20260232827A1 (Zymeworks, published 2026) can be followed below.

Where two headings read alike, the source gives them in different places.

Experiment [1] addresses T1, human sodium-dependent phosphate transporter 2B (NaPi2b) (human, UniProt O95436 1-690).
T1 sequence: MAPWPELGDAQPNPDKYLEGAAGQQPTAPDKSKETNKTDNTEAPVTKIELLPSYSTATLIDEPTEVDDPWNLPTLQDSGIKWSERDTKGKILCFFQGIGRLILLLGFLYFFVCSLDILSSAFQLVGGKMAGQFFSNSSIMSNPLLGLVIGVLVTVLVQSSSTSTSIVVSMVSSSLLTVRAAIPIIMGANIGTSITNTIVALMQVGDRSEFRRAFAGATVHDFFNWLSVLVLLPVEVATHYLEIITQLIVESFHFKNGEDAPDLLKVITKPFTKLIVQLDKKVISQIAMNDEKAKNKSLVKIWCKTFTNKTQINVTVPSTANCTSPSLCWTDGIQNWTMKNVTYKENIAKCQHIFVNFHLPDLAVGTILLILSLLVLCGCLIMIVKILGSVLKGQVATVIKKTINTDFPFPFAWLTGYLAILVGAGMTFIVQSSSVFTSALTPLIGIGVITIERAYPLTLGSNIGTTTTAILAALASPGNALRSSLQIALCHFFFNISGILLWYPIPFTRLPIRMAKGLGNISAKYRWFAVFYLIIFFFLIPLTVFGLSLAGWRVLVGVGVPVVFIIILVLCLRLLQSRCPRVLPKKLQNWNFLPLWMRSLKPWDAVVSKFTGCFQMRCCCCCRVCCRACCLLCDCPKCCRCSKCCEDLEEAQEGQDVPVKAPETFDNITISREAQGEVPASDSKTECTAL
Description: cell-based or functional assay.

Experiment [2] deals with T1, human sodium-dependent phosphate …. As to the kind of experiment: cell-based or functional assay. This is another data set of the same source.
For experiment [3] the target is unchanged. As to the kind of experiment: flow cytometry on HEK293-6e cells transfected with human NaPi2b.
Description: (§1) Following transfection, cells were seeded at 50,000 cells/well in conical-bottom 96-well plates and treated with test antibody or antibody-drug conjugate for 24 hours at 4° C. to prevent internalization. […] Following incubation and washing, fluorescence was detected by flow cytometry on a BD LSRFortessa™ Cell Analyzer (BD Biosciences, Franklin Lake, NJ) with 1,000 minimum events collected per well.
Experiment [4] shares this target. The experiment is described as above. This is another data set of the same source.
Description: as §1
Experiment [5] deals with T2, cynomolgus monkey NaPi2b (cynomolgus monkey, UniProt O95436 1-690 (human entry)).
T2 construct: Transfected into HEK293-6e cells (clone CL_#13433); also called Cy NaPi2b; Cyno NaPi2b
T2 chain: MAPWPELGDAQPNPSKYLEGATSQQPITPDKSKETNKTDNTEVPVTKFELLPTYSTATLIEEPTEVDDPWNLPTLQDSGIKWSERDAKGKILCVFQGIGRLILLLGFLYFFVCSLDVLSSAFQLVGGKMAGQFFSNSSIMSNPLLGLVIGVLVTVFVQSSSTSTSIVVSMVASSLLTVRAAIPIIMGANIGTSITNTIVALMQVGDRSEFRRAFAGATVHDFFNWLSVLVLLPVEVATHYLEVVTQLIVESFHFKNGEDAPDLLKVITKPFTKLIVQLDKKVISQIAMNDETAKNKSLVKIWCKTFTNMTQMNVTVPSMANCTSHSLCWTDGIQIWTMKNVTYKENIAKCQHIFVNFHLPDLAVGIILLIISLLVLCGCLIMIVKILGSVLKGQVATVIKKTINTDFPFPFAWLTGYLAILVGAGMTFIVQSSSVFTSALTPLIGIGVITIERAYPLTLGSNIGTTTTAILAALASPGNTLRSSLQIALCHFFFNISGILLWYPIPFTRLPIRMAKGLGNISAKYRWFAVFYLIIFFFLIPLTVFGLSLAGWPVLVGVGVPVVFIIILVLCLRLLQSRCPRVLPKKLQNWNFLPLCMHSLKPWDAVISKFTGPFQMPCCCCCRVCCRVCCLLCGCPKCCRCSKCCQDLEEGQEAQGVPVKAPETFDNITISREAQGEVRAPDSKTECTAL
As to the kind of experiment: flow cytometry on HEK293-6e cells transfected with cynomolgus NaPi2b.
Description: as §1

Experiment [6] deals with T1, human sodium-dependent phosphate …. As to the kind of experiment: flow cytometry on IGROV-1 cells, 24 h at 4 C, anti-human IgG Fc AF647.
Description: (§2) Following incubation and washing, fluorescence was detected by flow cytometry on a BD LSRFortessa™ Cell Analyzer (BD Biosciences, Franklin Lake, NJ) with 1,000 minimum events collected per well.
Experiment [7] shares this target. As to the kind of experiment: flow cytometry on OVCAR-3 cells, 24 h at 4 C, anti-human IgG Fc AF647.
Description: as §2
Experiment [8] shares this target. As to the kind of experiment: flow cytometry on HEK293-6e cells transfected with human NaPi2b, apparent Kd.
Description: as §1
For experiment [9] the target is unchanged. Described as above. This is another data set of the same source.
Description: as §1
For experiment [10], the target named is T2, cynomolgus monkey NaPi2b. Description: flow cytometry on HEK293-6e cells transfected with cynomolgus NaPi2b, apparent Kd.
Description: as §1
The target of experiment [11] is T3, mouse NaPi2b (mouse, UniProt Q9DBP0 1-697).
T3 construct: Transfected into HEK293-6e cells (clone CL_#13476); also called Ms NaPi2b
T3 sequence: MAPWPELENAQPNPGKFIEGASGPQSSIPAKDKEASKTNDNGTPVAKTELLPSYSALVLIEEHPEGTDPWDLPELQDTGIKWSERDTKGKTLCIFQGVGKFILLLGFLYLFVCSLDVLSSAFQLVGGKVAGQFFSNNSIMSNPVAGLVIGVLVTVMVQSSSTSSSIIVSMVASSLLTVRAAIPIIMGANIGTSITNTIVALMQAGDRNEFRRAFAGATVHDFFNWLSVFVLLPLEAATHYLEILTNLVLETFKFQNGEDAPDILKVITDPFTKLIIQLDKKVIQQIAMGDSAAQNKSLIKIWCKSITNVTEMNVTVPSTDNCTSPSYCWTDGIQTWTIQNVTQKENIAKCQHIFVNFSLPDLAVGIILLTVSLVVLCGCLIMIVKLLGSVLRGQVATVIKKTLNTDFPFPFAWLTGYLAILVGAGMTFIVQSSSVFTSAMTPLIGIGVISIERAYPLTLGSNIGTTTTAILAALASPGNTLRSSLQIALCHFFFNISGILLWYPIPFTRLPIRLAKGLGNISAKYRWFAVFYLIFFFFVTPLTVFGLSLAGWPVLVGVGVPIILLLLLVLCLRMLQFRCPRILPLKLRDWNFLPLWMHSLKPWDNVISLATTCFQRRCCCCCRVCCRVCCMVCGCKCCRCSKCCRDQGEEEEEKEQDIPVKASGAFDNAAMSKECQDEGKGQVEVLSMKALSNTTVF
Description: flow cytometry on HEK293-6e cells transfected with mouse NaPi2b.
Description: as §1

Experiment [12] concerns the target T3, mouse NaPi2b. As to the kind of experiment: flow cytometry on HEK293-6e cells transfected with mouse NaPi2b, apparent Kd.
Description: as §1
Experiment [13] addresses T1, human sodium-dependent phosphate …. Description: cell-based or functional assay. This is another data set of the same source.
For experiment [14] the target is unchanged. Description: cell-based or functional assay. The source holds these as a separate data set.
Experiment [15] has the same target. Description: cell-based or functional assay. This is another data set of the same source.

B1: v22277 (palivizumab) (antibody, human IgG1, kappa)
heavy 1: GQVTLRESGPALVKPTQTLTLTCTFSGFSLSTSGMSVGWIRQPPGKALEWLADIWWDDKKDYNPSLKSRLTISKDTSKNQVVLKVTNMDPADTATYYCARSMITNWYFDVWGAGTTVTVSSASTKGPSVFPLAPSSKSTSGGTAALGCLVKDYFPEPVTVSWNSGALTSGVHTFPAVLQSSGLYSLSSVVTVPSSSLGTQTYICNVNHKPSNTKVDKKVEPKSCDKTHTCPPCPAPELLGGPSVFLFPPKPKDTLMISRTPEVTCVVVDVSHEDPEVKFNWYVDGVEVHNAKTKPREEQYNSTYRVVSVLTVLHQDWLNGKEYKCKVSNKALPAPIEKTISKAKGQPREPQVYVYPPSRDELTKNQVSLTCLVKGFYPSDIAVEWESNGQPENNYKTTPPVLDSDGSFALVSKLTVDKSRWQQGNVFSCSVMHEALHNHYTQKSLSLSPG
heavy 2: not shown
light: GDIQMTQSPSTLSASVGDRVTITCKSQLSVGYMHWYQQKPGKAPKLLIYDTSKLASGVPSRFSGSGSGTEFTLTISSLQPDDFATYYCFQGSGYPFTFGGGTKLEIKRTVAAPSVFIFPPSDEQLKSGTASVVCLLNNFYPREAKVQWKVDNALQSGNSQESVTEQDSKDSTYSLSSTLTLSKADYEKHKVYACEVTHQGLSSPVTKSFNRGEC
Turning to B1, in [1], the “Internalized Fluorescence Fold-Over Palivizumab, IGROV-1, 4 hrs, 10 nM” value stood at 1 fold; the “Internalized Fluorescence Fold-Over Palivizumab, OVCAR-3, 4 hrs, 10 nM” value came out at 1 fold; the “Internalized Fluorescence Fold-Over Palivizumab, OVCAR-3, 24 hrs, 10 nM” value was 1 fold.

B2: v18993 (lifastuzumab) (antibody, human IgG1, kappa)
heavy 1: GEVQLVESGGGLVQPGGSLRLSCAASGFSFSDFAMSWVRQAPGKGLEWVATIGRVAFHTYYPDSMKGRFTISRDNSKNTLYLQMNSLRAEDTAVYYCARHRGFDVGHFDFWGQGTLVTVSSASTKGPSVFPLAPSSKSTSGGTAALGCLVKDYFPEPVTVSWNSGALTSGVHTFPAVLQSSGLYSLSSVVTVPSSSLGTQTYICNVNHKPSNTKVDKKVEPKSCDKTHTCPPCPAPELLGGPSVFLFPPKPKDTLMISRTPEVTCVVVDVSHEDPEVKFNWYVDGVEVHNAKTKPREEQYNSTYRVVSVLTVLHQDWLNGKEYKCKVSNKALPAPIEKTISKAKGQPREPQVYVYPPSRDELTKNQVSLTCLVKGFYPSDIAVEWESNGQPENNYKTTPPVLDSDGSFALVSKLTVDKSRWQQGNVFSCSVMHEALHNHYTQKSLSLSPG
heavy 2: not shown
light: GDIQMTQSPSSLSASVGDRVTITCRSSETLVHSSGNTYLEWYQQKPGKAPKLLIYRVSNRFSGVPSRFSGSGSGTDFTLTISSLQPEDFATYYCFQGSFNPLTFGQGTKVEIKRTVAAPSVFIFPPSDEQLKSGTASVVCLLNNFYPREAKVQWKVDNALQSGNSQESVTEQDSKDSTYSLSSTLTLSKADYEKHKVYACEVTHQGLSSPVTKSFNRGEC
notes: Two different heavy chains (heterodimeric Fc)
Consider B2, for which, in experiment [2], the “Internalized Fluorescence in OVCAR-3, 15 min, 100 nM” value came out at 2480. In experiment [2], the “Internalized Fluorescence in OVCAR-3, 4 hr, 100 nM” value amounted to 8750. Further, the “Internalized Fluorescence in OVCAR-3, 16 hr, 100 nM” value in experiment [2] is 8600. For the same molecule, the “Internalized Fluorescence in OVCAR-3, 24 hr, 100 nM” value in experiment [2] amounted to 13900. Further, the Bmax stood at 678 in experiment [3]; 678 in experiment [4]; 424 in experiment [5]; 20000 in experiment [6]; 14500 in experiment [7]. For the same molecule, the Kd in experiment [6] was determined as 2.69 nM; in experiment [7], 5.79 nM; in experiment [8] it was 5.76 nM; in experiment [9] it was 5.76 nM; in experiment [10], 4.71 nM.

B3: humanized anti-NaPi2b antibody variant v38591 (antibody, human IgG1, kappa)
heavy: not shown
light: DVQMTQSPSSLSASVGDRVTITCRASQDVYSYLNWYQQKPGKAVKLLIYYTSRLQSGVPSRFSGSGSGTDYTLTISSLQPEDFATYYCQQYNIFPWTFGQGTKLEIKRTVAAPSVFIFPPSDEQLKSGTASVVCLLNNFYPREAKVQWKVDNALQSGNSQESVTEQDSKDSTYSLSSTLTLSKADYEKHKVYACEVTHQGLSSPVTKSFNRGEC
notes: Human IgG1/kappa, full-size antibody; same as v29456 but the heavy chains include a C-terminal lysine; also called v38591 (H1L2); v38591 wild-type Fc
With B3, the “Internalized Fluorescence in OVCAR-3, 15 min, 100 nM” value in [2] amounted to 7620. In addition, the “Internalized Fluorescence in OVCAR-3, 4 hr, 100 nM” value in [2] turned out to be 16600. Further, in experiment [2], the “Internalized Fluorescence in OVCAR-3, 16 hr, 100 nM” value turned out to be 24300. In addition, the “Internalized Fluorescence in OVCAR-3, 24 hr, 100 nM” value in experiment [2] was 32400. Besides, the Bmax in experiment [3] amounted to 651; in [11], 385; in [4] it was 651; in [5], 429; in experiment [6] it was 22200; in [7] it was 15100. For the same molecule, the Kd came out at 1.67 nM in experiment [6]; 2.8 nM in experiment [7]; 1.68 nM in [8]; 0.29 nM in [12]; 1.68 nM in experiment [9]; 0.27 nM in experiment [10].

B4: v29456-MC-GGFG-AM-Compound 139 DAR 8 (antibody, human IgG1, kappa)
heavy: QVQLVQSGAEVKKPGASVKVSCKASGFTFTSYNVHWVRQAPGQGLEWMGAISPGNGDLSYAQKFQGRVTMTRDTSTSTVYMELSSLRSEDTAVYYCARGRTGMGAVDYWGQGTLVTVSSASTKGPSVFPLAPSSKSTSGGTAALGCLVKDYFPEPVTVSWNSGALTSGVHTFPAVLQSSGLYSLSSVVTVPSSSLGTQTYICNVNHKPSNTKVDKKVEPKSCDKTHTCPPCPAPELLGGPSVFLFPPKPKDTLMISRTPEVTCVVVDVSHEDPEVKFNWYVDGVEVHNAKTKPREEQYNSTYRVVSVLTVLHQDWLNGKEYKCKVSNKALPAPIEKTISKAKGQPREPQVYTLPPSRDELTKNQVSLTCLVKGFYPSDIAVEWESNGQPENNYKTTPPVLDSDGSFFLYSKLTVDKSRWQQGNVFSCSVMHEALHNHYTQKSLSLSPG
light: B3 light
modifications: drug-linker MC-GGFG-AM-Compound 139 on cysteine thiols after TCEP reduction, positions not given; DAR 8.0 for the whole antibody
With B4, in experiment [13], the “EC50, in vitro cytotoxicity, 2D monolayer, IGROV-1” value stood at 0.39 nM and the “EC50, in vitro cytotoxicity, 2D monolayer, TOV-21G” value turned out to be 4.3 nM. For the same molecule, in experiment [14], the “EC50, in vitro cytotoxicity, IGROV-1 spheroids” value came to 0.31 nM and the “EC50, in vitro cytotoxicity, TOV-21G:HDFa (1:1) spheroids” value came to 0.24 nM. Besides, in experiment [15], the “EC50, in vitro cytotoxicity, H441 spheroids” value is 1.57 nM; the “EC50, in vitro cytotoxicity, IGROV-1 spheroids” value came out at 0.55 nM; the “EC50, in vitro cytotoxicity, TOV-21G spheroids” value was 0.54 nM.
